Measured values as given in patent US20040175816.

Target: T1, OkrAI restriction endonuclease (Oceanospirillum kriegii) (UniProt E2JKI3)
T1 sequence: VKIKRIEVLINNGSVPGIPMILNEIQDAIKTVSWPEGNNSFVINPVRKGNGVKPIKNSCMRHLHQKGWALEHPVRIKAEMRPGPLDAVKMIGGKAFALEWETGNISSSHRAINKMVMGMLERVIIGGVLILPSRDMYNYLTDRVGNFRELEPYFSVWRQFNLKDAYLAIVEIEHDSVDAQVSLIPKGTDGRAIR
Assay: cleavage_in_vitro
Conditions: approximate yield, assayed in cell extract; isoschizomer of BamHI

## lambda phage DNA
  activity (units per gram wet cells): 5e+06
